Earlier results, collected in publication PMC5028754.

Target: ubiquitin (UniProt P0CG48)
Experiment: NMR
Conditions: cited from earlier work

Sequence of Ddi1 UBL (P40087 1-80): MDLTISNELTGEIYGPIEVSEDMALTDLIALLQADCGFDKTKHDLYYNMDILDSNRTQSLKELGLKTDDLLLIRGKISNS
Sequence of Ddi1 UBA (P40087 386-428): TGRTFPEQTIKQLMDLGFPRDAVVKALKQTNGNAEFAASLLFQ

Substance | Kd
Ddi1 UBL (from UniProt P40087) | 45 µM
Ddi1 UBA (from UniProt P40087) | 150 µM
